Earlier results as cited in PMC8257665.

Assays:
Glu109 = Glu109 (UniProt position 109, PLLICEFYLIL); conditions: ground (dark) state GPR implied; not stated explicitly
Glu143 = Glu143 (UniProt position 143, FGYMGEAGIMA); conditions: ground (dark) state GPR implied; not stated explicitly

In the case of “Green-light absorbing proteorhodopsin (GPR) (uncultured marine gamma-proteobacterium (the article says only 'marine γ-proteobacteria'))”, the pKa (Glu109) is listed as over 8.5 and the pKa (Glu143) is listed as over 9.0.
